Residue numbers refer to the chain shown, from its start. Numbered stars: 1 amine (or outer) side, 2 acyl side, 3 side chain; on linkers, the order of the positions; unused ones are H or OH. Square brackets hold non-standard residues; d marks the D form. Side chains are listed from the residue outwards. Ends that are not written are not given here. * marks the point of attachment. C20 diacid = O=C(O)CCCCCCCCCCCCCCCCCCC(=O)*; γGlu = O=C(O)[C@H](CCC(=O)[*:2])N[*:1]; AEEA = NCCOCCOCC(=O)O; Aib = CC(C)(N)C(=O)O

Assay [1] concerns the target T1, human GIP receptor (human, UniProt P48546 22-466).
T1 sequence (looked up): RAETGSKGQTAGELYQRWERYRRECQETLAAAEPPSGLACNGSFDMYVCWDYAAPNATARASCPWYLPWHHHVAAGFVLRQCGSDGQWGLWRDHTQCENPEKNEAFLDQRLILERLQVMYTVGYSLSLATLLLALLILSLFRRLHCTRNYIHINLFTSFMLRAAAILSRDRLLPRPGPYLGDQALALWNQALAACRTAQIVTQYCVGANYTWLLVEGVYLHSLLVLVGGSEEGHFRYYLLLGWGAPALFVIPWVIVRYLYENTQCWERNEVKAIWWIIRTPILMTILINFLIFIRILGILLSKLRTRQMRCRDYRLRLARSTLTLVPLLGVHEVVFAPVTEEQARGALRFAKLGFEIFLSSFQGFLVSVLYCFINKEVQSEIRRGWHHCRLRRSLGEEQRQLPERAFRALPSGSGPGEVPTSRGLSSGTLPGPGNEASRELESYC
As to the kind of experiment: cell-based or functional assay.

Assay [2] addresses human GLP-1 receptor (human, UniProt P43220 24-463). As to the kind of experiment: cell-based or functional assay.

B1: Example 58 (peptide)
peptide: Y[Aib]EGTFTSDYSSLLDKK([AEEA-AEEA-γGlu-C20 diacid])AQ[Aib]AFIEYLIEGGPSSGAPPPS-NH2
modifications: N-terminus assumed
SMILES: CC[C@H](C)[C@H](NC(=O)[C@H](CC(C)C)NC(=O)[C@H](Cc1ccc(O)cc1)NC(=O)[C@H](CCC(=O)O)NC(=O)[C@@H](NC(=O)[C@H](Cc1ccccc1)NC(=O)[C@H](C)NC(=O)C(C)(C)NC(=O)[C@H](CCC(N)=O)NC(=O)[C@H](C)NC(=O)[C@H](CCCCNC(=O)COCCOCCNC(=O)COCCOCCNC(=O)CC[C@H](NC(=O)CCCCCCCCCCCCCCCCCCC(=O)O)C(=O)O)NC(=O)[C@H](CCCCN)NC(=O)[C@H](CC(=O)O)NC(=O)[C@H](CC(C)C)NC(=O)[C@H](CC(C)C)NC(=O)[C@H](CO)NC(=O)[C@H](CO)NC(=O)[C@H](Cc1ccc(O)cc1)NC(=O)[C@H](CC(=O)O)NC(=O)[C@H](CO)NC(=O)[C@@H](NC(=O)[C@H](Cc1ccccc1)NC(=O)[C@@H](NC(=O)CNC(=O)[C@H](CCC(=O)O)NC(=O)C(C)(C)NC(=O)[C@@H](N)Cc1ccc(O)cc1)[C@@H](C)O)[C@@H](C)O)[C@@H](C)CC)C(=O)N[C@@H](CCC(=O)O)C(=O)NCC(=O)NCC(=O)N1CCC[C@H]1C(=O)N[C@@H](CO)C(=O)N[C@@H](CO)C(=O)NCC(=O)N[C@@H](C)C(=O)N1CCC[C@H]1C(=O)N1CCC[C@H]1C(=O)N1CCC[C@H]1C(=O)N[C@@H](CO)C(N)=O
On to B1, for which, in assay [1], the “hGIPR cAMP EC50 ratio” value turned out to be 0.522 and the “hGIPR cAMP Rel EC50” value came to 0.266 nM. Further, in assay [2], the “hGLP1R cAMP EC50 ratio” value is 0.378 and the “hGLP1R cAMP Rel EC50” value stood at 0.18 nM.

B2: Example 51 (peptide)
peptide: Y[Aib]EGTFTSDYSILLDKK([AEEA-AEEA-γGlu-C20 diacid])AQ[Aib]AFIEYLIEGG-NH2
modifications: N-terminus assumed
SMILES: CC[C@H](C)[C@H](NC(=O)[C@H](CC(C)C)NC(=O)[C@H](Cc1ccc(O)cc1)NC(=O)[C@H](CCC(=O)O)NC(=O)[C@@H](NC(=O)[C@H](Cc1ccccc1)NC(=O)[C@H](C)NC(=O)C(C)(C)NC(=O)[C@H](CCC(N)=O)NC(=O)[C@H](C)NC(=O)[C@H](CCCCNC(=O)COCCOCCNC(=O)COCCOCCNC(=O)CC[C@H](NC(=O)CCCCCCCCCCCCCCCCCCC(=O)O)C(=O)O)NC(=O)[C@H](CCCCN)NC(=O)[C@H](CC(=O)O)NC(=O)[C@H](CC(C)C)NC(=O)[C@H](CC(C)C)NC(=O)[C@@H](NC(=O)[C@H](CO)NC(=O)[C@H](Cc1ccc(O)cc1)NC(=O)[C@H](CC(=O)O)NC(=O)[C@H](CO)NC(=O)[C@@H](NC(=O)[C@H](Cc1ccccc1)NC(=O)[C@@H](NC(=O)CNC(=O)[C@H](CCC(=O)O)NC(=O)C(C)(C)NC(=O)[C@@H](N)Cc1ccc(O)cc1)[C@@H](C)O)[C@@H](C)O)[C@@H](C)CC)[C@@H](C)CC)C(=O)N[C@@H](CCC(=O)O)C(=O)NCC(=O)NCC(N)=O
For B2, in assay [1], the “hGIPR cAMP EC50 ratio” value came out at 1.69 and the “hGIPR cAMP Rel EC50” value was determined as 0.096 nM. In assay [2], the “hGLP1R cAMP EC50 ratio” value was determined as 0.426 and the “hGLP1R cAMP Rel EC50” value amounted to 0.153 nM.

B3: Example 57 (peptide)
peptide: YXEGTXTSDYSILLDKKAQXAFIEYLIEGGPSSGAPPPS
modifications: Aib2; αMeF6; K17((2-[2-(2-Amino-ethoxy)-ethoxy]-acetyl)2-(γ-Glu)-CO-(CH2)18-CO2H); Aib20; C-terminal NH2
As to B3, in assay [1], the “hGIPR cAMP EC50 ratio” value worked out at 1.74 and the “hGIPR cAMP Rel EC50” value was found to be 0.0849 nM. Also, in assay [2], the “hGLP1R cAMP EC50 ratio” value turned out to be 0.996 and the “hGLP1R cAMP Rel EC50” value came to 0.0668 nM.

B4: Example 66 (peptide)
peptide: B3 peptide with X6F, L13X, K16E, I27L
modifications: not fully specified; Aib2; αMeF13 as printed (likely αMeL13); K17((2-[2-(2-Amino-ethoxy)-ethoxy]-acetyl)2-(γ-Glu)-CO-(CH2)18-CO2H); Aib20; C-terminal NH2
For the molecule B4, in assay [1], the “hGIPR cAMP EC50 ratio” value was 1.89 and the “hGIPR cAMP Rel EC50” value was determined as 0.0743 nM. Moreover, in assay [2], the “hGLP1R cAMP EC50 ratio” value stood at 0.255 and the “hGLP1R cAMP Rel EC50” value amounted to 0.285 nM.

B5: Example 69 (peptide)
peptide: B3 peptide with L13X
modifications: not fully specified; Aib2; αMeF6; αMeF13 as printed (likely αMeL13); K17((2-[2-(2-Amino-ethoxy)-ethoxy]-acetyl)2-(γ-Glu)-CO-(CH2)18-CO2H); Aib20; C-terminal NH2
As to B5, in assay [1], the “hGIPR cAMP EC50 ratio” value came out at 2.73 and the “hGIPR cAMP Rel EC50” value was found to be 0.0712 nM. In addition, in assay [2], the “hGLP1R cAMP EC50 ratio” value was found to be 0.85 and the “hGLP1R cAMP Rel EC50” value was 0.0844 nM.

B6: Example 68 (peptide)
peptide: B3 peptide with X6F, S11X
modifications: Aib2; αMeS11; K17((2-[2-(2-Amino-ethoxy)-ethoxy]-acetyl)2-(γ-Glu)-CO-(CH2)18-CO2H); Aib20; C-terminal NH2
On to B6, for which, in assay [1], the “hGIPR cAMP EC50 ratio” value was 1.67 and the “hGIPR cAMP Rel EC50” value amounted to 0.0881 nM. In assay [2], the “hGLP1R cAMP EC50 ratio” value turned out to be 0.354 and the “hGLP1R cAMP Rel EC50” value stood at 0.153 nM.

B7: Example 67 (peptide)
peptide: B3 peptide with X6F, F22X
modifications: Aib2; K17((2-[2-(2-Amino-ethoxy)-ethoxy]-acetyl)2-(γ-Glu)-CO-(CH2)18-CO2H); Aib20; αMeF22; C-terminal NH2
Take B7: in assay [1], the “hGIPR cAMP EC50 ratio” value worked out at 1.61 and the “hGIPR cAMP Rel EC50” value is 0.0913 nM. Moreover, in assay [2], the “hGLP1R cAMP EC50 ratio” value is 0.123 and the “hGLP1R cAMP Rel EC50” value is 0.447 nM.

B8: Example 49 (peptide)
peptide: Y[Aib]EGTFTSDYSILLDKIAQ[Aib]AFIEYLIEGGPSSGAPPPSK([AEEA-AEEA-γGlu-C20 diacid])-NH2
modifications: N-terminus assumed
SMILES: CC[C@H](C)[C@H](NC(=O)[C@H](CCCCN)NC(=O)[C@H](CC(=O)O)NC(=O)[C@H](CC(C)C)NC(=O)[C@H](CC(C)C)NC(=O)[C@@H](NC(=O)[C@H](CO)NC(=O)[C@H](Cc1ccc(O)cc1)NC(=O)[C@H](CC(=O)O)NC(=O)[C@H](CO)NC(=O)[C@@H](NC(=O)[C@H](Cc1ccccc1)NC(=O)[C@@H](NC(=O)CNC(=O)[C@H](CCC(=O)O)NC(=O)C(C)(C)NC(=O)[C@@H](N)Cc1ccc(O)cc1)[C@@H](C)O)[C@@H](C)O)[C@@H](C)CC)C(=O)N[C@@H](C)C(=O)N[C@@H](CCC(N)=O)C(=O)NC(C)(C)C(=O)N[C@@H](C)C(=O)N[C@@H](Cc1ccccc1)C(=O)N[C@H](C(=O)N[C@@H](CCC(=O)O)C(=O)N[C@@H](Cc1ccc(O)cc1)C(=O)N[C@@H](CC(C)C)C(=O)N[C@H](C(=O)N[C@@H](CCC(=O)O)C(=O)NCC(=O)NCC(=O)N1CCC[C@H]1C(=O)N[C@@H](CO)C(=O)N[C@@H](CO)C(=O)NCC(=O)N[C@@H](C)C(=O)N1CCC[C@H]1C(=O)N1CCC[C@H]1C(=O)N1CCC[C@H]1C(=O)N[C@@H](CO)C(=O)N[C@@H](CCCCNC(=O)COCCOCCNC(=O)COCCOCCNC(=O)CC[C@H](NC(=O)CCCCCCCCCCCCCCCCCCC(=O)O)C(=O)O)C(N)=O)[C@@H](C)CC)[C@@H](C)CC
Take B8: in assay [1], the “hGIPR cAMP EC50 ratio” value turned out to be 1.69 and the “hGIPR cAMP Rel EC50” value was determined as 0.0868 nM. Moreover, in assay [2], the “hGLP1R cAMP EC50 ratio” value stood at 0.112 and the “hGLP1R cAMP Rel EC50” value is 0.597 nM.

B9: Example 50 (peptide)
peptide: Y[Aib]EGTFTSDYSILLDKK([AEEA-AEEA-γGlu-C20 diacid])AQ[Aib]AFIEYLIEGGPSSG-NH2
modifications: N-terminus assumed
SMILES: CC[C@H](C)[C@H](NC(=O)[C@H](CC(C)C)NC(=O)[C@H](Cc1ccc(O)cc1)NC(=O)[C@H](CCC(=O)O)NC(=O)[C@@H](NC(=O)[C@H](Cc1ccccc1)NC(=O)[C@H](C)NC(=O)C(C)(C)NC(=O)[C@H](CCC(N)=O)NC(=O)[C@H](C)NC(=O)[C@H](CCCCNC(=O)COCCOCCNC(=O)COCCOCCNC(=O)CC[C@H](NC(=O)CCCCCCCCCCCCCCCCCCC(=O)O)C(=O)O)NC(=O)[C@H](CCCCN)NC(=O)[C@H](CC(=O)O)NC(=O)[C@H](CC(C)C)NC(=O)[C@H](CC(C)C)NC(=O)[C@@H](NC(=O)[C@H](CO)NC(=O)[C@H](Cc1ccc(O)cc1)NC(=O)[C@H](CC(=O)O)NC(=O)[C@H](CO)NC(=O)[C@@H](NC(=O)[C@H](Cc1ccccc1)NC(=O)[C@@H](NC(=O)CNC(=O)[C@H](CCC(=O)O)NC(=O)C(C)(C)NC(=O)[C@@H](N)Cc1ccc(O)cc1)[C@@H](C)O)[C@@H](C)O)[C@@H](C)CC)[C@@H](C)CC)C(=O)N[C@@H](CCC(=O)O)C(=O)NCC(=O)NCC(=O)N1CCC[C@H]1C(=O)N[C@@H](CO)C(=O)N[C@@H](CO)C(=O)NCC(N)=O
As to B9, in assay [1], the “hGIPR cAMP EC50 ratio” value was 1.96 and the “hGIPR cAMP Rel EC50” value stood at 0.0794 nM. For the same molecule, in assay [2], the “hGLP1R cAMP EC50 ratio” value stood at 0.675 and the “hGLP1R cAMP Rel EC50” value turned out to be 0.0961 nM.

B10: Example 70 (peptide)
peptide: Y[Aib]EGTFTSDK([AEEA-AEEA-γGlu-C20 diacid])SILLDKIAQ[Aib]AFIEYLIEGG-NH2
modifications: N-terminus assumed
SMILES: CC[C@H](C)[C@H](NC(=O)[C@H](CCCCN)NC(=O)[C@H](CC(=O)O)NC(=O)[C@H](CC(C)C)NC(=O)[C@H](CC(C)C)NC(=O)[C@@H](NC(=O)[C@H](CO)NC(=O)[C@H](CCCCNC(=O)COCCOCCNC(=O)COCCOCCNC(=O)CC[C@H](NC(=O)CCCCCCCCCCCCCCCCCCC(=O)O)C(=O)O)NC(=O)[C@H](CC(=O)O)NC(=O)[C@H](CO)NC(=O)[C@@H](NC(=O)[C@H](Cc1ccccc1)NC(=O)[C@@H](NC(=O)CNC(=O)[C@H](CCC(=O)O)NC(=O)C(C)(C)NC(=O)[C@@H](N)Cc1ccc(O)cc1)[C@@H](C)O)[C@@H](C)O)[C@@H](C)CC)C(=O)N[C@@H](C)C(=O)N[C@@H](CCC(N)=O)C(=O)NC(C)(C)C(=O)N[C@@H](C)C(=O)N[C@@H](Cc1ccccc1)C(=O)N[C@H](C(=O)N[C@@H](CCC(=O)O)C(=O)N[C@@H](Cc1ccc(O)cc1)C(=O)N[C@@H](CC(C)C)C(=O)N[C@H](C(=O)N[C@@H](CCC(=O)O)C(=O)NCC(=O)NCC(N)=O)[C@@H](C)CC)[C@@H](C)CC
In the case of B10, in assay [1], the “hGIPR cAMP EC50 ratio” value was 0.351 and the “hGIPR cAMP Rel EC50” value was determined as 0.48 nM. Besides, in assay [2], the “hGLP1R cAMP EC50 ratio” value is 0.207 and the “hGLP1R cAMP Rel EC50” value was 0.283 nM.

(Values after US20220048967A1 (published 2022).)
